The results in this text go back to FireProtDB (doi:10.1093/protein/8.11.1153).

The labels stand for the following.
B1: Alpha-lactalbumin, P00712 (parent)
chain: MMSFVSLLLVGILFHATQAEQLTKCEVFQKLKDLKDYGGVSLPEWVCTAFHTSGYDTQAIVQNNDSTEYGLFQINNKIWCKDDQNPHSRNICNISCDKFLDDDLTDDIVCAKKILDKVGINYWLAHKALCSEKLDQWLCEKL

The variants in this data set derive from B1. The following applies: Capra hircus; pH 2; 20 °C; Urea; CD; NaCl-HCl 100 mM; structure 1HFY; whole UniProt chain shown.

For the variant T48I, the “ddG of mutation (higher = less stable)” value is -0.07 kcal/mol, the denaturant m value turned out to be 0.31 kcal/mol/M, the “denaturant midpoint (higher = more stable)” value was 2.5 M and the unfolding free energy amounted to 0.77 kcal/mol.
For A49T the same measures were 0.14 kcal/mol, 0.29 kcal/mol/M, 1.9 M and 0.56 kcal/mol.
The corresponding values for A49I are -0.3 kcal/mol, 0.33 kcal/mol/M, 3 M and 1 kcal/mol.
Turning to T52I, the “ddG of mutation (higher = less stable)” value is -0.32 kcal/mol, the denaturant m value worked out at 0.39 kcal/mol/M, the “denaturant midpoint (higher = more stable)” value was determined as 2.6 M and the unfolding free energy is 1.02 kcal/mol.
